Source: paper PMC8357825, “Structural basis for Ca^2+ activation of the heteromeric PKD1L3/PKD2L1 channel” (Nature Communications, 2021)

B1: mouse PKD2L1 (residues 64–629) (domain or fragment, UniProt A2A259 64-629, looked up)
chain: TLVSSCCLHICRSIRGLWGTTLTENTAENRELYVKTTLRELVVYIVFLVDICLLTYGMTSSSAYYYTKVMSELFLHTPSDSGVSFQTISSMSDFWDFAQGPLLDSLYWTKWYNNQSLGRGSHSFIYYENLLLGAPRLRQLRVRNDSCVVHEDFREDILNCYDVYSPDKEDQLPFGPQNGTAWTYHSQNELGGSSHWGRLTSYSGGGYYLDLPGSRQASAEALQGLQEGLWLDRGTRVVFIDFSVYNANINLFCILRLVVEFPATGGTIPSWQIRTVKLIRYVNNWDFFIVGCEVVFCVFIFYYVVEEILEIHLHRLRYLSSVWNILDLVVILLSIVAVGFHIFRTLEVNRLMGKLLQQPDTYADFEFLAFWQTQYNNMNAVNLFFAWIKIFKYISFNKTMTQLSSTLARCAKDILGFAIMFFIVFFAYAQLGYLLFGTQVENFSTFVKCIFTQFRIILGDFDYNAIDNANRILGPVYFVTYVFFVFFVLLNMFLAIINDTYSEVKEELAGQKDQLQLSDFLKQSYNKTLLRLRLRKERVSDVQKVLKGGEPEIQFEDFTSTLRELG
notes: PKD2L1, mouse, Uniprot A2A259, residues 64-629 (lacks the C-terminal coiled-coil domain); Three copies of this chain (I, II, III) stand with one PKD1L3-CTD in the heterotetramer; It is not clear whether each chain has both tags or one tag each; also called mPKD2L1 (residues 64–629); TRPP2; source: HEK293F, transiently co-transfected with mPKD1L3, purified (anti-Flag M2 resin, Strep-Tactin resin, …)
B2: mouse PKD1L3-CTD (residues 1632–2151) (domain or fragment, UniProt Q2EG98 1632-2151, looked up)
chain: PIYTAPAMNNLAKPTRKAWKKQLSKLTGGTLVQILFLTLLMTTVYSAKDSSRFFLHRAIWKRFSHRFSEIKTVEDFYPWANGTLLPNLYGDYRGFITDGNSFLLGNVLIRQTRIPNDIFFPGSLHKQMKSPPQHQEDRENYGAGWVPPDTNITKVDSIWHYQNQESLGGYPIQGELATYSGGGYVVRLGRNHSAATRVLQHLEQRRWLDHCTKALFVEFTVFNANVNLLCAVTLILESSGVGTFLTSLQLDSLTSLQSSERGFAWIVSQVVYYLLVCYYAFIQGCRLKRQRLAFFTRKRNLLDTSIVLISFSILGLSMQSLSLLHKKMQQYHCDRDRFISFYEALRVNSAVTHLRGFLLLFATVRVWDLLRHHAQLQVINKTLSKAWDEVLGFILIIVVLLSSYAMTFNLLFGWSISDYQSFFRSIVTVVGLLMGTSKHKEVIALYPILGSLLVLSSIILMGLVIINLFVSAILIAFGKERKACEKEATLTDMLLQKLSSLLGIRLHQNPSEEHADNTGY
notes: PKD1L3, mouse, Uniprot Q2EG98, carboxy-terminal domain (TM6-TM11 = S1-S6; VSD, PMD and PD), residues 1632-2151; it is not clear whether each chain has both tags or one tag each; No tag removal is described; also called mPKD1L3 (residues 1632–2151); TRP-like domain; source: HEK293F, transiently co-transfected with mPKD2L1, purified (anti-Flag M2 resin, Strep-Tactin resin, SEC in GDN)

Key:
Assay in all cases: cryo-EM structure; co-expressed and co-purified PKD1L3-CTD/PKD2L1 complex in 20 mM HEPES pH 7.5, 150 mM NaCl, 0.01% GDN, 0.2% Fos-Choline-8 added; without (apo, 3.4 Å) and with 20 mM CaCl2 (Ca2+-loaded, 3.1 Å)
[1] = biological target: B2; conditions: both partners purified
[2] = biological target: the molecule itself
[3] = biological target: B1; conditions: both partners purified

| stoichiometry N [1] | binding result [3] | Binder | binding result [2] |
| --- | --- | --- | --- |
| 3 PKD2L1 per PKD1L3 |  | B1 | binds |
|  | binds | B2 |  |
